According to patent US20060039927A1 (US Dept. of Health and Human Services, published 2006):

B1: sgp130-Fc (R&D Systems), a fusion protein of sgp130 and human IgG Fc (Fc fusion)
chain: ELLDPCGYISPESPVVQLHSNFTAVCVLKEKCMDYFHVNANYIVWKTNHFTIPKEQYTIINRTASSVTFTDIASLNIQLTCNILTFGQLEQNVYGITIISGLPPEKPKNLSCIVNEGKKMRCEWDGGRETHLETNFTLKSEWATHKFADCKAKRDTPTSCTVDYSTVYFVNIEVWVEAENALGKVTSDHINFDPVYKVKPNPPHNLSVINSEELSSILKLTWTNPSIKSVIILKYNIQYRTKDASTWSQIPPEDTASTRSSFTVQDLKPFTEYVFRIRCMKEDGKGYWSDWSEEASGITYEDRPSKAPSFWYKIDPSHTQGYRTVQLVWKTLPPFEANGKILDYEVTLTRWKSHLQNYTVNATKLTVNLTNDRYLATLTVRNLVGKSDAAVLTIPACDFQATHPVMDLKAFPKDNMLWVEWTTPRESVKKYILEWCVLSDKAPCITDWQQEDGTVHRTYLRGNLAESKCYLITVTPVYADGPGSPESIKAYLKQAPPSKGPTVRTKKVGKNEAVLEWDQLPVDVQNGFIRNYTIFYRTIIGNETAVNVDSSHTEYTLSSLTSDTLYMVRMAAYTDEGGKDGPEFTFTTPKFAQGEIE
notes: extracellular domain; Immobilized on the CM5 chip in the BIAcore work; the results text calls it sgp130; also called immobilized sgp130; not shown: human IgG Fc

Legend:
[1] = biological target: T1, maltose binding protein (MBP), control (UniProt P0AEX9 27-392 = MBP); assay: surface plasmon resonance (BIAcore 2000), sgp130 immobilized at 1.5 ng/mm2
[2] = biological target: T1, maltose binding protein (MBP), control; assay: indirect ELISA, receptor immobilized
Method: Reactions were visualized by using tetramethoxybenzene peroxidase substrate (Kirkegaard & Perry Laboratories, Gaithersburg, Md.), followed by 2N H2SO4. The interference of vIL-6 binding to sgp130 by mAbs was analyzed in a similar manner. […] The mixture was applied to the plates coated with sgp130 (2 μg/ml) after SuperBlock treatment. The protein complex was detected by streptavidin-HRP (1:1000; Kirkegaard & Perry Laboratories), and the peroxidase activity was visualized by tetramethoxybenzene peroxidase substrate, followed by 2N H₂SO₄. Plates were read at 450 nm with λ correction at 630 m using a microplate reader.

[3] = biological target: B1; assay: SPR Kd of this filing against a previously reported Kd (1.7 nM) of the human IL-6/sIL-6Rα complex
[4] = biological target: B1; assay: SPR (BIAcore 2000), sgp130-Fc immobilized on CM5, MBPvIL-6 in flow, 1:1 Langmuir binding model
[5] = biological target: B1; assay: SPR (BIAcore 2000), equilibrium data, Scatchard analysis, sgp130-Fc immobilized

Binder: B1
- binding result [1]: no binding

B2: purified recombinant human sgp130 (R&D Systems) (receptor)
chain: ELLDPCGYISPESPVVQLHSNFTAVCVLKEKCMDYFHVNANYIVWKTNHFTIPKEQYTIINRTASSVTFTDIASLNIQLTCNILTFGQLEQNVYGITIISGLPPEKPKNLSCIVNEGKKMRCEWDGGRETHLETNFTLKSEWATHKFADCKAKRDTPTSCTVDYSTVYFVNIEVWVEAENALGKVTSDHINFDPVYKVKPNPPHNLSVINSEELSSILKLTWTNPSIKSVIILKYNIQYRTKDASTWSQIPPEDTASTRSSFTVQDLKPFTEYVFRIRCMKEDGKGYWSDWSEEASGITYEDRPSKAPSFWYKIDPSHTQGYRTVQLVWKTLPPFEANGKILDYEVTLTRWKSHLQNYTVNATKLTVNLTNDRYLATLTVRNLVGKSDAAVLTIPACDFQATHPVMDLKAFPKDNMLWVEWTTPRESVKKYILEWCVLSDKAPCITDWQQEDGTVHRTYLRGNLAESKCYLITVTPVYADGPGSPESIKAYLKQAPPSKGPTVRTKKVGKNEAVLEWDQLPVDVQNGFIRNYTIFYRTIIGNETAVNVDSSHTEYTLSSLTSDTLYMVRMAAYTDEGGKDGPEFTFTTPKFAQGEIE
notes: extracellular domain; Used in the ELISA assays; Bought; also called soluble gp130
- binding result [2]: no binding

B3: purified recombinant human sIL-6Rα (R&D Systems) (receptor)
chain: LAPRRCPAQEVARGVLTSLPGDSVTLTCPGVEPEDNATVHWVLRKPAAGSHPSRWAGMGRRLLLRSVQLHDSGNYSCYRAGRPAGTVHLLVDVPPEEPQLSCFRKSPLSNVVCEWGPRSTPSLTTKAVLLVRKFQNSPAEDFQEPCQYSQESQKFSCQLAVPEGDSSFYIVSMCVASSVGSKFSKTQTFQGCGILQPDPPANITVTAVARNPRWLSVTWQDPHSWNSSFYRLRFELRYRAERSKTFTTWMVKDLQHHCVIHDAWSGLRHVVQLRAQEEFGQGEWSEWSPEAMGTPWTESRSPPAENEVSTPMQALTTNKDDDNILFRDSANATSLPVQDSSSVPLP
notes: extracellular domain; Bought; also called soluble IL-6Rα
- binding result [2]: no binding

B4: MBPvIL-6 (fusion of maltose binding protein, a factor Xa cleavage site and amino acids 22-204 of KSHV vIL-6) (ligand)
chain: GKLPDAPEFEKDLLIQRLNWMLWVIDECFRDLCYRTGICKGILEPAAIFHLKLPAINDTDHCGLIGFNETSCLKKLADGFFEFEVLFKFLTTEFGKSVINVDVMELLTKTLGWDIQEELNKLTKTHYSPPKFDRGLLGRLQGLKYWVRHFASFYVLSAMEKFAGQAVRVLNSIPDVTPDVHDK
modifications: biotinylated in the sgp130 interference ELISA (sites not given)
notes: range 22-204; also called recombinant vIL-6; full length MBPvIL-6; not shown: factor Xa cleavage site and vector linker between MBP and vIL-6
- fold lower binding affinity than human IL-6/sIL-6Rα complex to gp130 [3]: 1000 fold
- Kd [4]: 2200 nM
- koff [4]: 0.0022 s⁻¹
- kon [4]: 980 M⁻¹ s⁻¹
- Kd [5]: 2500 nM
